The values that follow are results of earlier work, collected in paper PMC3937638.

The data set has as its target His45 (UniProt position 80, RKIGFHVCAAG). To be noted: HA8(AN)-bound Link_TSG6.

Broadly, the pKa is the negative logarithm of the acid dissociation constant. Consider “TSG-6 Link module (Link_TSG6; tumor necrosis factor-stimulated gene-6 protein, hyaluronan-binding domain) (Homo sapiens)”, for which the pKa is 5.7.
